This is an account of results in US20040086521A1, “Method for the identification of antigenic peptides” (priority 2002, published 2004).

One test deals with DRB1*0401 (Homo sapiens, UniProt P01903+P01911, A100K/A169T/F76Y/I96L/K127E/L162R/M171V/N62H/P40V/Q125Y/R42H/S133A/S149N/S66Y/V115G/V209L/W38E). Kind of test: MHC peptide binding studies with synthetic peptide. Particulars: MHC peptide binding study.
In a further test the target is DRB5*0101 (Homo sapiens, UniProt P01903+Q30154). Kind of test: MHC peptide binding studies with synthetic peptide. Conditions: MHC peptide binding study.
Another test deals with DRB1*0101 (Homo sapiens, UniProt P01903+P01911, A100R/D57E/F55L/F60I/F76Y/I96L/L162R/M171V/P40L/Q125E/R42F/V115G/Y59C). The experiment in a line: MHC peptide binding studies with synthetic peptide. Conditions: MHC peptide binding study.
The target in a further test is HLA-DR allele DRB1*0401 (human). The experiment in a line: MHC peptide binding study with synthetic peptide.
Another test deals with HLA-DR allele DRB5*0101 (human). Kind of test: MHC peptide binding study with synthetic peptide.
A further test has as its target HLA-DR allele DRB1*0101 (human). Kind of test: MHC peptide binding study with synthetic peptide.

For the molecule KPGKTKTIVYQRGILLPQ, the “binding capacity to allele DRB1*0401” value in the test with DRB1*0401 is “revealed the same”. The “binding capacity to allele DRB5*0101” value with DRB5*0101 is recorded as “confirmed the binding capacity”. Further, in the test with DRB1*0101, the “binding capacity to allele DRB1*0101” value is “confirmed the binding capacity”.
As to KPGKTKTIVYQRGILLPQ, the binding result with HLA-DR allele DRB1*0401, with HLA-DR allele DRB5*0101 and with HLA-DR allele DRB1*0101 was “binds” each time.
